Results as given in patent publication US20190023745A1.

Legend:
[1] = target: Zika virus MR766 envelope (E) protein, on virus particles (Zika virus strain MR766) (UniProt Q32ZE1); assay: cell-based or functional assay
[2] = target: Zika virus H/PF/2013 envelope (E) protein, on virus particles (Zika virus strain H/PF/2013); assay: cell-based or functional assay

Substance | EC50, neutralization in Vero cells [1] [ng/mL] | PRNT50 (plaque reduction neutralization test, BHK-21 cells) [2] [µg/mL]
EDE1 C8 monoclonal antibody | 0.89 | 
EDE1 C10 monoclonal antibody | 0.34 | 0.024
